In PMC10144703, “Molecular Mechanism of Sirtuin 1 Inhibition by Human Immunodeficiency Virus 1 Tat Protein” (Life, 2023):
Where no end group is shown, it is not given here.

B1: ac-Tat-46–54 (peptide)
peptide: SYGRK(Ac)KRRQ
notes: HIV1 Tat, residues 46-54, acetylated at Lys50; also called Tat substrate peptide
B2: Tat-Cys^−-(1–86), full-length HIV1 Tat (Zaire 2 isolate) with its 7 Cys residues replaced by Ser/Ala (natural protein)
chain: MDPVDPNIEPWNHPGSQPKTASNRAHAKKSAYHSQVAFITKGLGISYGRKKRRQRRRPSQGGQTHQDPIPKQPSSQPRGDPTGPKE
B3: human mini-Sirt1 (aa 183-505-(GGGS)2-641-665) (enzyme)
chain: GPYTFVQQHLMIGTDPRTILKDLLPETIPPPELDDMTLWQIVINILSEPPKRKKRKDINTIEDAVKLLQECKKIIVLTGAGVSVSCGIPDFRSRDGIYARLAVDFPDLPDPQAMFDIEYFRKDPRPFFKFAKEIYPGQFQPSLCHKFIALSDKEGKLLRNYTQNIDTLEQVAGIQRIIQCHGSFATASCLICKYKVDCEAVRGDIFNQVVPRCPRCPADEPLAIMKPEIVFFGENLPEQFHRAMKYDKDEVDLLIVIGSSLKVRPVALIPSSIPHEVPQILINREPLPHLHFDVELLGDCDVIINELCHRLGGEYAKLCCNPVGGGSGGGSQYLFLPPNRYIFHGAEVYSDSEDDV
notes: artificial linker, printed as (GGGS)2; human Sirt1, residues 641-665 (ESA region); Modified pET-19b with TEV cleavage site; source: E. coli CodonPlus(DE3), purified (nickel NTA, protease digestion, second nickel NTA, SEC)

Assays:
human Sirt3-(118-399) = molecular target: T1, human Sirt3-(118-399) (human, UniProt Q9NTG7 118-399); experiment: crystal structure; 10 mg/mL Sirt3-(118-399) incubated with 2 mM peptide for 60 min at 20 °C; sitting-drop vapor diffusion at 20 °C (MES pH 6.0/PEG 200/PEG 3000 for ac-Tat-46-54; CHES pH 9.0/PEG 8000 for Tat-37-59); details: both partners purified
T1 construct: human Sirt3, residues 118-399; The construct used for crystallization; also called hSirt3-(118-399); source: E. coli CodonPlus(DE3), pVFT3S, purified (nickel NTA, protease digestion, second nickel NTA, SEC)
T1 sequence (looked up): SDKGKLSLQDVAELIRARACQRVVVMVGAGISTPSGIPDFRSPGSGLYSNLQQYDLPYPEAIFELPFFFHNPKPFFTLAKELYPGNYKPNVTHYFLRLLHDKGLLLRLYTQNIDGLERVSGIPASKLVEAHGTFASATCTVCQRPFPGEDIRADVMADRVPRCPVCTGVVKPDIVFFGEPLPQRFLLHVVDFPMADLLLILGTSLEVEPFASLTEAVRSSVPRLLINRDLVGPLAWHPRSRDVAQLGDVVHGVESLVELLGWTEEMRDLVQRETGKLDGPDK

Sirt2-(43-356) = molecular target: T2, Sirt2-(43-356) (human, UniProt Q8IXJ6 43-356); experiment: cell-based or functional assay
T2 sequence (looked up): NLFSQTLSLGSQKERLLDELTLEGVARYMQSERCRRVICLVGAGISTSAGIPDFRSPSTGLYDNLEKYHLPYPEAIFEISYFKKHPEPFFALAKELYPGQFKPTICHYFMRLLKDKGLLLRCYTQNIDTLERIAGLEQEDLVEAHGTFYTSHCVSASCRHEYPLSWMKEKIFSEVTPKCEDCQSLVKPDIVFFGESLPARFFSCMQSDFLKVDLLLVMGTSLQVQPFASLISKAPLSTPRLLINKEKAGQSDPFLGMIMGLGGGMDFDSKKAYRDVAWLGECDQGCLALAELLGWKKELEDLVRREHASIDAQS

human full-length Sirt1 = molecular target: T3, human full-length Sirt1 (human, UniProt Q96EB6 1-747); experiment: cell-based or functional assay
T3 sequence (looked up): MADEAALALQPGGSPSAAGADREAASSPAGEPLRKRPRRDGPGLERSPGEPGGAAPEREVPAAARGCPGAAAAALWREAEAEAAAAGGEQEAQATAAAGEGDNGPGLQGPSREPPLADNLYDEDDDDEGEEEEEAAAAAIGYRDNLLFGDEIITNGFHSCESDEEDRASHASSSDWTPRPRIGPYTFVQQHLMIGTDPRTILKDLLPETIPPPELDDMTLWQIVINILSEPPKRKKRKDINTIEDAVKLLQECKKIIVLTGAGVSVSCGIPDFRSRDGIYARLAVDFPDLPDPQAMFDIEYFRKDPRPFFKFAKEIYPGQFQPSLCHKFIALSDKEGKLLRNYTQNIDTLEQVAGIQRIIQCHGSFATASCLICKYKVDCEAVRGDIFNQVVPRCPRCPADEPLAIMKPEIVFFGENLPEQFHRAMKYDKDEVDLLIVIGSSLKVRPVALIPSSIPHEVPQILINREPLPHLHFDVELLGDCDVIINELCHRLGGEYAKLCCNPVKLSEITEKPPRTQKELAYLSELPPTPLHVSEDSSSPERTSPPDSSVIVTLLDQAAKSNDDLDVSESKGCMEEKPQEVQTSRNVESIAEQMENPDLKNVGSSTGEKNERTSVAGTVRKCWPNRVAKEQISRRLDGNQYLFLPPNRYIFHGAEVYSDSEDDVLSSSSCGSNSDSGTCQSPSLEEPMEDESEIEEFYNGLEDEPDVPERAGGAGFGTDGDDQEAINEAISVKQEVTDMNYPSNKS

[1] = molecular target: Sirt3 (as used in the activity assays) (human); experiment: cell-based or functional assay
human mini-Sirt1 (aa …) = molecular target: B3; experiment: cell-based or functional assay
[2] = molecular target: B2; experiment: NMR titration; unlabeled mini-Sirt1 (stock 260 µM) added stepwise to 100 µM 15N-labeled Tat-Cys^−; 150 mM sodium chloride, 10 mM potassium phosphate pH 6.4; 2D-(1H,15N)-HSQC at 298 K; details: both partners purified

## B1
Human Sirt3-(118-399)
  binding result: binds

## B2
Sirt2-(43-356)
  inhibition of Sirt2 in the FdL assay at substrate Km; IC50: 11 µM
Human full-length Sirt1
  inhibition of fl-Sirt1 deacetylation of FdL substrate, FdL assay at substrate Km; IC50: 3.6 µM
  inhibition of fl-Sirt1 deacetylation of a p53-derived peptide, coupled enzymatic assay, 100 µM substrate; IC50: ~20 µM
[1]
  inhibition of Sirt3 in the FdL assay at substrate Km; IC50: 15.9 µM
Human mini-Sirt1 (aa …)
  inhibition of mini-Sirt1 deacetylation of p53 substrate, coupled-enzyme assay at substrate Km; IC50: 30 to 40 µM
  inhibition of mini-Sirt1 in the FdL assay at substrate Km; IC50: 2.3 µM

## B3
[2]
  binding result: binds
